# Like-named read-outs stand apart in the source and are kept apart here.
# T1: recombinant cynomolgus IL-25 protein (cynomolgus monkey, UniProt Q9H293 33-177 (human entry), limits assumed)
# T1 construct: Bought (Sino Biological Inc, customized order); also called cyno IL-25
# T1 chain: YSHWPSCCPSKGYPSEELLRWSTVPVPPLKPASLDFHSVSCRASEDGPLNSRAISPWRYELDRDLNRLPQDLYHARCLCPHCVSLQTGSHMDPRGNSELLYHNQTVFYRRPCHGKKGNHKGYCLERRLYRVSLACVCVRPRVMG
# T2: recombinant human IL-25 protein (human, UniProt Q9H293 33-177)
# T2 sequence: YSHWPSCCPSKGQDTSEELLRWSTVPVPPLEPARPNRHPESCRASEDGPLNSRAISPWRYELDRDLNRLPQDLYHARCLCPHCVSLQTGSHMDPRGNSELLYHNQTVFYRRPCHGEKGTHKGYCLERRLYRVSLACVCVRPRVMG
# T3: recombinant mouse IL-25 protein (mouse, UniProt Q8VHH8 17-169)
# T3 construct: Bought (Sino Biological Inc, catalog no: 50138-M07H)
# T3 sequence: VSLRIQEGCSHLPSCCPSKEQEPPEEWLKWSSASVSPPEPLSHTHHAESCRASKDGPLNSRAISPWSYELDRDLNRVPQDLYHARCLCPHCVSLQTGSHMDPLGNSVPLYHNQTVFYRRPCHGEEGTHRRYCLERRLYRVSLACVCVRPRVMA
# Tests used:
# [1] = molecular target: T1, recombinant cynomolgus IL-25 protein; assay: ELISA: recombinant cynomolgus IL-25 coated on the plate, detection with goat-anti-human Kappa Light Chain antibody HRP, ABTS, OD 405
# Method: In another study, the ability of five disclosed anti-IL-25 antibodies (IL25Ab1 to Ab5) binding to cynomolgus IL-25 was evaluated using ELISA. Briefly, recombinant human IL-25 protein (Acro, catalog no: IL5-H4221, lot no: 401-20CNF1-UT) or recombinant cynomolgus IL-25 protein (Sino Biological Inc, catalog no: customized order, lot no: MB17MA2715) was directly coated to ELISA plates, respectively. Recombinant antibodies were then added to the plates followed by detection using goat-anti-human Kappa Light Chain antibody HRP (Novus, catalog no: NBP1-75064, Lot no: 68-188-010920). After the addition of ABTS (Moss Inc., catalog no: ABTS-1000, Lot no: 03086202) substrate, ELISA plates were read using an ELISA plate reader (Bioteck).
# [2] = molecular target: T2, recombinant human IL-25 protein; assay: cell-based or functional assay
# [3] = molecular target: T2, recombinant human IL-25 protein; assay: BLI (Octet), antibody captured on anti-human Fc biosensor, human IL-25 as analyte
# Method: The binding kinetics of the disclosed anti-IL-25 antibodies to recombinant human IL-25 was determined by Octet® Bio-Layer Interferometry (BLI) systems by Sartorius. The assay uses anti-IL-25 monoclonal antibodies as the ligand and recombinant human IL-25 protein as the analyte.
# Briefly, the assays were performed by first capturing 5 μg/ml of anti-IL-25 antibodies using anti-human Fc Octet biosensors. The mAb-captured biosensors were then submerged in wells containing serially diluted human IL-25 for 4-6 minutes, followed by a 10-15 minute dissociation time. The binding sensorgrams were collected and analyzed by the Octet Data Analysis software.
# [4] = molecular target: T2, recombinant human IL-25 protein; assay: cell-based or functional assay; remark: listed apart in the source
# [5] = molecular target: T2, recombinant human IL-25 protein; assay: cell-based or functional assay; remark: listed apart in the source
# [6] = molecular target: T2, recombinant human IL-25 protein; assay: ELISA, IL-25 coated, goat anti-human IgG-HRP detection
# Method: (§1) In this study, the ability of five disclosed anti-IL-25 antibodies (IL25Ab1 to Ab5) binding to both human and mouse IL-25 was evaluated using ELISA. Briefly, recombinant human IL-25 protein (Acro, catalog no: IL5-H4221, lot no: 401-20CNF1-UT) or recombinant mouse IL-25 protein (Sino Biological Inc, catalog no: 50138-M07H, lot no: LC15AP0607) was directly coated to ELISA plates, respectively. Recombinant antibodies were then added to the plates followed by detection using goat-anti-human IgG-HRP (Jackson ImmunoResearch, catalog no: 109-035-098, Lot no: 157400). After the addition of ABTS (Moss Inc., catalog no: ABTS-1000, Lot no: 03086202) substrate, ELISA plates were read using an ELISA plate reader (Bioteck).
# [7] = molecular target: T3, recombinant mouse IL-25 protein; assay: as above
# Method: as §1
# [8] = molecular target: T2, recombinant human IL-25 protein; assay: cell-based or functional assay; remark: listed apart in the source
# [9] = molecular target: T2, recombinant human IL-25 protein; assay: cell-based or functional assay; remark: listed apart in the source
# [10] = molecular target: T2, recombinant human IL-25 protein; assay: cell-based or functional assay; remark: listed apart in the source
# [11] = molecular target: T1, recombinant cynomolgus IL-25 protein; assay: ELISA, IL-25 coated, goat anti-human kappa light chain-HRP detection
# Method: (§2) In this study, the ability of three humanized anti-IL-25 antibodies generated in hIgG1 (IL25Ab6 to Ab8) and hIgG1 YTE formats (IL25Ab9 to Ab11) binding to both human, mouse and cynomolgus IL-25 was evaluated using ELISA. Briefly, recombinant human IL-25 protein (Acro, catalog no: IL5-H4221, lot no: 401-20CNF1-UT), recombinant mouse IL-25 protein (Sino Biological Inc, catalog no: 50138-M07H, lot no: LC15AP0607) or recombinant cynomolgus IL-25 protein (Sino Biological Inc, catalog no: customized order, lot no: MB17MA2715) was directly coated to ELISA plates, respectively. Recombinant antibodies were then added to the plates followed by detection using goat-anti-human Kappa Light Chain antibody HRP (Novus, catalog no: NBP1-75064, Lot no: 68-188-010920). After the addition of ABTS (Moss Inc., catalog no: ABTS-1000, Lot no: 03086202) substrate, ELISA plates were read using an ELISA plate reader (Bioteck).
# [12] = molecular target: T2, recombinant human IL-25 protein; assay: as above
# Method: as §2
# [13] = molecular target: T3, recombinant mouse IL-25 protein; assay: as above
# Method: as §2
Binder,EC50 (read off the curve) [1] [nM],"IC50, IL-25 induced IL-5 production in human PBMC [2] [nM]",Kd [3] [nM],koff [3] [s⁻¹],kon [3] [M⁻¹ s⁻¹],"IC50, IL-25 induced NF-kB signaling (SEAP) in HEK-Blue IL-17 reporter cells [4] [nM]","IC50, IL-25 induced CXCL1 production in HT-29 cells [5] [nM]",EC50 [6] [nM],EC50 [7] [nM],"IC50, IL-25 induced NF-kB signaling (SEAP) in HEK-Blue IL-17 reporter cells [8] [nM]","IC50, IL-25 induced IL-5 production in human PBMC [9] [nM]","IC50, IL-25 induced CXCL1 production in HT-29 cells [10] [nM]",EC50 [11] [nM],EC50 [12] [nM],EC50 [13] [nM]
"IL25Ab2 (antibody, V domains shown) VH: QVTLKESGPGILQPSQTLSLTCSFSGFSLSTSGMGVGWIRQPSGKGLEWLAHIWWDDVKQYNPALQSRLTISKDTSSSQVFLKIASVDIADIATYYCARIGPVHHGFPYWGQGALVTVSS VL: QIVLTQSPAIMSAFPGEKVTMSCSASSSVNYMYWHQQKPGSSPRLLIYDTSNLASGVPVRFSGSGSGTSYSLTISRMEAEDAATYYCQQWTSYPPMYTFGGGTKLEIK",~0.1,0.14,< 0.001,< 1e-07,1.36e+06,0.068,0.089,0.017,0.012,–,–,–,–,–,–
"IL25Ab3 (antibody, V domains shown, detected with anti-human IgG or anti-human kappa reagents; also called anti-IL-25Ab3; mouse origin of anti-IL-25 specific antibody) VH: EVQLQQSGPELVKPGGSVRISCKASGYSFTGYTMNWVKQSHGKNLEWIGLINPDNGGTSHKQRFMGKATLTVDKSSSTAYMELLSLTSEDSAVYYCAREGYYGPSPFHHYAMDYWGQGTSVTVSS VL: DIQMTQTTSSLSASLGDRVTISCSASQDISNYLNWYQQKPDGTIKLLIYYTSTLHSGVPSRFSGSGSGTDYSLTISNLEPEDIATYYCQQYSKLPYTFGGGTKLEIK",~0.1,0.16,< 0.001,< 1e-07,875000,0.049,0.067,0.022,0.013,0.037,0.302,0.144,0.364,0.506,0.39
"IL25Ab1 (antibody, V domains shown) VH: QVQLKESGPGLVAPSQSLSITCTVSGFSLTDYGINWVRQPPGKGLEWLGMIWGDGVTHYNSVLKSRLSISKDNSMSQIFLKMNSLQTDDTARYYCARTLFYDGTLYYYAMDYWGQGTSVTVSS VL: QIVLTQSPATMSASPGEKVTMTCSASSSVTYMYWYQQKTGSSPRLLIYDTPNLASGVPVRFSGSGSGTSYSLTISRVEAEDAATYYCQQWSSYPHTWTFGGGTKLEIK",~0.1,0.12,< 0.001,< 1e-07,1.25e+06,0.052,0.071,0.02,0.015,–,–,–,–,–,–

# Now from value to binder:
EC50 (read off the curve) [1] [nM],"IC50, IL-25 induced IL-5 production in human PBMC [2] [nM]",Kd [3] [nM],koff [3] [s⁻¹],kon [3] [M⁻¹ s⁻¹],"IC50, IL-25 induced NF-kB signaling (SEAP) in HEK-Blue IL-17 reporter cells [4] [nM]","IC50, IL-25 induced CXCL1 production in HT-29 cells [5] [nM]",EC50 [6] [nM],EC50 [7] [nM],"IC50, IL-25 induced NF-kB signaling (SEAP) in HEK-Blue IL-17 reporter cells [8] [nM]","IC50, IL-25 induced IL-5 production in human PBMC [9] [nM]","IC50, IL-25 induced CXCL1 production in HT-29 cells [10] [nM]",EC50 [11] [nM],EC50 [12] [nM],EC50 [13] [nM],Binder
~0.2,0.26,< 0.001,< 1e-07,2.48e+06,0.061,0.077,0.01,0.035,–,–,–,–,–,–,"IL25Ab5 (antibody, V domains shown) VH: QVQLQQWGAGLLKPSETLSLTCAVYGGSFSAYYWSWIRQSPGKGLEWIGEINHGGNTNYSPSLKSRVTISVDTSKSQFSLKLSSVTAADTAAYYCARGPGITSWAFDFWDQGTMVTVSS VL: DIQMTQSPSSLSASVGDRVTIACQASQDINNYLNWYQQKPGKAPKLLIYDASNLETGVPSRFSGNGSGTDFTFTISSLQPEDIATFYCQQYDTLPYTFGQGTKLEIR"
~0.1,0.15,< 0.001,< 1e-07,1.2e+06,0.073,0.076,0.034,0.026,–,–,–,–,–,–,"IL25Ab4 (antibody, V domains shown) VH: QVTLKESGPGILQPSQTLSLTCSFSGFSLSTSGMGVSWIRQPSGKGLEWLAHIYWDDAKFYNPSLKSRVTISKDTSRNQVFLRITSVDTADIATYYCARRGYDNYGGFVDWGQGTLVTVSS VL: ENVLIQSPAIMSASLGEKVTMSCRASSSVNYMYWYQQKSDAPPKLWIYYTSNLAPGVPGRFSGSGSGNSYSLTISSMEGEDAATYYCQQFTSYPYMYTFGGGTKLEIK"
